Laboratory results as given in paper PMC8831599 (2022).
Values belong to the binder of their own block, whether it stands above or below them.

Experiments:
His-CA14 = assay: 200 uM CBD; AlphaScreen competition with Biotin-DB21
His-CA14 D34A = assay: as above
His-DDB1–CRBN complex = His-DDB1–CRBN complex (human, UniProt Q96SW2 41-442; Q16531 1-1140); assay: 200 uM pomalidomide; AlphaScreen competition
IAA7 degron = biological target: T1, IAA7 degron (Arabidopsis thaliana, UniProt Q38825, auxin); assay: BLI
T1 chain: QVVGWPPVRNYRK

Biotinylated DB21 F48A [1] = biological target: T2, Biotinylated DB21 F48A (biotin on the Avi-tag (BirA-catalyzed)); assay: BLI; 200 uM CBD
[2] = biological target: T3, Biotinylated DB21 F48A-H101A (biotin on the Avi-tag (BirA-catalyzed)); assay: BLI; 200 uM CBD
Biotinylated DB21 H101A = Biotinylated DB21 H101A (biotin on the Avi-tag (BirA-catalyzed)); assay: BLI; 200 uM CBD
[3] = biological target: T4, Biotin-DB21 (biotinylated Avi-DB21) (biotin on the Avi-tag (BirA-catalyzed)); assay: 200 uM CBD; AlphaScreen competition with His-CA14
Biotinylated DB21 F48A [4] = biological target: T2, Biotinylated DB21 F48A; assay: 200 uM CBD; AlphaScreen competition
[5] = biological target: T3, Biotinylated DB21 F48A-H101A; assay: 200 uM CBD; AlphaScreen competition
Biotinylated DB21 F48A [6] = biological target: T2, Biotinylated DB21 F48A; assay: no CBD; AlphaScreen competition
[7] = biological target: T3, Biotinylated DB21 F48A-H101A; assay: no CBD; AlphaScreen competition
[8] = biological target: T4, Biotin-DB21 (biotinylated Avi-DB21); assay: no CBD; AlphaScreen competition with His-CA14
GST-TIR1-ASK1 complex = biological target: T5, GST-TIR1-ASK1 complex (Arabidopsis thaliana, UniProt Q570C0 1-594; Q39255 1-160); assay: 200 uM auxin; AlphaScreen competition with biotin-Aux/IAA7
T5 chain 1: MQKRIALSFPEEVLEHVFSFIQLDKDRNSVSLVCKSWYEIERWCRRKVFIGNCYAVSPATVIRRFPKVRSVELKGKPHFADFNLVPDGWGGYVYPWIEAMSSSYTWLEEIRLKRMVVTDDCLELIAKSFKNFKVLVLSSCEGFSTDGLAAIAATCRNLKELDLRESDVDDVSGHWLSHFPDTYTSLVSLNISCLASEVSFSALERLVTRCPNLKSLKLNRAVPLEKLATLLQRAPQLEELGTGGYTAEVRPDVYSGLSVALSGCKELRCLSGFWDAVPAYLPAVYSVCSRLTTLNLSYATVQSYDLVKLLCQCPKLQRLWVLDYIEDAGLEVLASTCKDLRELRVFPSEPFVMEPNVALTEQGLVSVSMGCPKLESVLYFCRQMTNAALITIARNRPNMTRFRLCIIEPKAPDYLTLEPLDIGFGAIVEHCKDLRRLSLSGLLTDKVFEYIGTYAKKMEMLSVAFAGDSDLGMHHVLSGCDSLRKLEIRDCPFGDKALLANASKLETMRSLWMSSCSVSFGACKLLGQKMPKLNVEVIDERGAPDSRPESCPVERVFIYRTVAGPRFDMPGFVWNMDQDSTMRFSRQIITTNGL
T5 chain 2: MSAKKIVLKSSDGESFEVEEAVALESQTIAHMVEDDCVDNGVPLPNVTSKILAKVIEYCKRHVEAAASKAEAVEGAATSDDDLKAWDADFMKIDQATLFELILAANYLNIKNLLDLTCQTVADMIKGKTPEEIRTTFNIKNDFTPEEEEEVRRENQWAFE

IC50 (His-CA14): 35 nM
IC50 (His-CA14 D34A): 27000 nM
B1: DB21 dimerization binder nanobody, tag-free (VHH)
VHH: EVQLQASGGGFVQPGGSLRLSCAASGTTYGQTNMGWFRQAPGKEREFVSAISGLQGRDLYYADSVKGRFTISRDNSKNTVYLQMNSLRAEDTATYYCAFHDFLRMWEYWGQGTQVTVSS

IC50 (His-DDB1–CRBN complex): 67 nM
B2: Label-free IKZF1 ZF2-3 (141-196) (domain or fragment)
chain: GERPFQCNQCGASFTQKGNLLRHIKLHSGEKPFKCHLCNYACRRRDALTGHLRTHS

Kd (Biotinylated DB21 F48A [1]): 1500 nM
Kd [2]: 1900 nM
Kd (Biotinylated DB21 H101A): 215 nM
IC50 [3]: 31 nM
IC50 (Biotinylated DB21 F48A [4]): 1700 nM
IC50 [5]: 4700 nM
IC50 (Biotinylated DB21 F48A [6]): 18000 nM
IC50 [7]: 23000 nM
IC50 [8]: 17000 nM
B4: CA14 anchor binder nanobody, tag-free (VHH)
VHH: EVQLQASGGGFVQPGGSLRLSCAASGSTSRQYDMGWFRQAPGKEREFVSAISSNQDQPPYYADSVKGRFTISRDNSKNTVYLQMNSLRAEDTATYYCAFKQHHANGAYWGQGTQVTVSS

The remaining lines, values behind:

B3: TIR1 (protein)
chain: MQKRIALSFPEEVLEHVFSFIQLDKDRNSVSLVCKSWYEIERWCRRKVFIGNCYAVSPATVIRRFPKVRSVELKGKPHFADFNLVPDGWGGYVYPWIEAMSSSYTWLEEIRLKRMVVTDDCLELIAKSFKNFKVLVLSSCEGFSTDGLAAIAATCRNLKELDLRESDVDDVSGHWLSHFPDTYTSLVSLNISCLASEVSFSALERLVTRCPNLKSLKLNRAVPLEKLATLLQRAPQLEELGTGGYTAEVRPDVYSGLSVALSGCKELRCLSGFWDAVPAYLPAVYSVCSRLTTLNLSYATVQSYDLVKLLCQCPKLQRLWVLDYIEDAGLEVLASTCKDLRELRVFPSEPFVMEPNVALTEQGLVSVSMGCPKLESVLYFCRQMTNAALITIARNRPNMTRFRLCIIEPKAPDYLTLEPLDIGFGAIVEHCKDLRRLSLSGLLTDKVFEYIGTYAKKMEMLSVAFAGDSDLGMHHVLSGCDSLRKLEIRDCPFGDKALLANASKLETMRSLWMSSCSVSFGACKLLGQKMPKLNVEVIDERGAPDSRPESCPVERVFIYRTVAGPRFDMPGFVWNMDQDSTMRFSRQIITTNGL
Kd (IAA7 degron): 30.5 nM

B5: IAA7 degron peptide, non-labeled (peptide)
chain: QVVGWPPVRNYRK
modifications: synthetic peptide, unlabelled; limits not given, taken from the IAA7 degron peptide of the TIR1-ASK1 crystal structures (13-mer, PDB 2P1Q)
IC50 (GST-TIR1-ASK1 complex): 18.4 nM
